Source: the DeepSol protein solubility set

Experiment: soluble on expression in E. coli; label from the status in PepcDB or PDB records

| Sequence | soluble on expression in E. coli |
| --- | --- |
| MPIDDNIIIADEAVIHPGDLHEDFIRSSGPGGQNVNKVATAVQLRFDAANAAGLSERVRARTIKLAGQRATKDGVIVIEAGRFRTQEQNRADARARLTALVAKAAEPPPPPRKKTRPSKGAVERRLKSKAGRGTIKKLRGRVGDDLEHHHHHH | soluble |
| MFNNNDFKDYRKLLGFGSQNAFKEFLGAKDIQPCVDFNDLNALKKRLIEIFSAINSIYCFKYNEYELECFFKNSIERVFSKIVDTHIIYKLNNQGRRPEEVCFSWMRGFLVAEFFKDFIACLFSAQKETIKFFGGDNFENIESFKRSPKADFLLDNHLLLEVQSDFQGINDIKEHKVLEAKRRLITDKVPTIVVHFDLFNGQVACVEISKIKDNDLNWITRQQMEGQSVFNISQNFFDYKITEIPNKPLS | not soluble |
| MFPNSILGHPPFTPNHQQHNNFFTLSPTVYSHQQLIDAQFNFQNADLSRAVSLQQLTYGNVSPIQTSASPLFRGRKRLSDEKNLPLDGKRQRFHSPHQEPTVVNQIVPLSGERRYSMPPLFHTHYVPDIVRCVPPFREIAFLEPREITLPEAKDKLSQQILELFETCQQQISDLKKKELCRTQLQREIQLLFPQSRLFLVGSSLNGFGTRSSDGDLCLVVKEEPCFFQVNQKTEARHILTLVHKHFCTRLSGYIERPQLIRAKVPIVKFRDKVSCVEFDLNVNNIVGIRNTFLLRTYAYLENRVRPLVLVIKKWASHHQINDASRGTLSSYSLVLMVLHYLQTLPEPILPSLQKIYPESFSPAIQLHLVHQAPCNVPPYLSKNESNLGDLLLGFLKYYATEFDWNSQMISVREAKAIPRPDGIEWRNKYICVEEPFDGTNTARAVHEKQKFDMIKDQFLKSWHRLKNKRDLNSILPVRAA | not soluble |
| MHTIPITTDSAASWDWPLQHNDGVVKVTNTSEKFEVGLDAGFFGPNDIDVKVNGIEIIIHLRHDNRPTEYGIVNREVHRTYKLPEDVDPSTVRSHLNSSGVLTITANKL | not soluble |
| STDYGEEQRNELEALESIYPDSFTVLSESPPSFTITVTSEAGENDETVQTTLKFTYSEKYPDETPLYEIFSQENLEDNDVSDILKLLALQAEENLGMVMIFTLVTAVQEKLNEIVDQIKTRREEEKKQKEKEAEEAEKKLFHGTPVTIENFLSWKAKFDAELLEIKKKRMKEEEQAGKNKLSGKQLFETDHNLDTSDIQFLEDAGNNVEVDESLFQEMDDLELEDGEDDPDYNPVAPGSDSSD | soluble |
| MGSDKIHHHHHHMVQAWYMDESTADPRKPHRAQPDRPVSLEQLRTLGVLYWKLDADKYENDPELEKIRKMRNYSWMDIITICKDTLPNYEEKIKMFFEEHLHLDEEIRYILEGSGYFDVRDKEDKWIRISMEKGDMITLPAGIYHRFTLDEKNYVKAMRLFVGEPVWTPYNRPADHFDARVQYMSFLEGTA | soluble |
| MGSDKIHHHHHHMERTDDESNKQPVILPPMIRIAYCTPSLHIPGGVERVLTTKANYLAENGNYDIYILLTDGKGKPPCYTLSPKVKIIQLDIDFEELWELPLWKKVPVYLKKQRIYRRKLSAALSHLKPDITVSLLRREINFITSLKDGSKKIGELHVNRKNYRNFEKNESNFIKELFAKLWMKSLVRHLKKLDKFVVLSEEDRANWPELQNVKVISNPLPFQSGTFSDLNNKRITAAGRYTYQKGFDLLLEAWSKICNRHPDWELHIYGKGNKTTYQVLAGKWKLKNLFLENATPDMLCKYHESSIFVSSSRFEGFGMVIAEAMACGVPAVSFACPCGPKDIIRDGEDGLLVENGKTEELAEKINYLIENEQIRKEMGKKARINVQRFAEDVIMQQWIQLFNNLLNGTKQ | not soluble |
| MSLTAYQASSQARVDAAMHTLFTAPSPELARLYEAMRYSVMNGGKRVRPLLAYAACEALGGKPEQANGAACAVELIHAYSLVHDDLPAMDDDDLRRGQPTTHKAFDEACAILAGDGLQSLAFSALLDPALSDASAEIRLRMVTTLAQAAGPAGMVGGQAIDLGSVGLKLDQQALEYMHRHKTGALIEASVILGALASGRAEKGELKALQTYAQAIGLAFQVQDDILDVESDTATLGKRQGADIARDKPTYPALLGLAAAKEYALELRDQALHALRPFDAAAEPLRELARYIVERRSEGHHHHHH | soluble |
| MGHHHHHHSHMGSLPSRRKSLPSPSLSSSVQGQGPVTMEAERSKATAVALGSFPAGGPAELSLRLGEPLTIVSEDGDWWTVLSEVSGREYNIPSVHVAKVSHGWLYEGLSREKAEELLLLPGNPGGAFLIRESQTRRGSYSLSVRLSRPASWDRIRHYRIHCLDNGWLYISPRLTFPSLQALVDHYSELADDICCLLKEPCVLQRAGPLPGKDIPLPVTVQRTPLNWKELDSSLLFSEAATGEESLLSEGLRESLSFYISLNDEAVSLDDA | not soluble |
| MGSDKIHHHHHHMWTILCDKDSGGVLLRKGVSTSIIRSNPDLLEALPKAELYELGFFKAEDLEKVLRFFHDKNFGIHAPFIYRYRYHHPNPTSLNEEEREDTFSVNKKCAELARKIGAEYMIIHFPNALQKENWLSVYREVEREFSELAGVISVRVENVYGNDHFHSAEDYRTFLENTGCKMCVDIGHLLLDAEVYGFSPIEFIEKLSDFVEEFHIYYADFETYKKCHHAPWGESKEFLEVLEFIKDFDADFVLEPTPECEEGLEKLFEYWRDL | not soluble |
| MGSDKIHHHHHHMALEDKDLRSIQEVRNLIESANKAQKELAAMSQQQIDTIVKAIADAGYDAREKLAKMAHEETGFGIWQDKVIKNVFASKHVYNYIKDMKTIGMLKEDNEKKVMEVAVPLGVVAGLIPSTNPTSTVIYKTLISIKAGNSIVFSPHPNALKAILETVRIISEAAEKAGCPKGAISCMTVPTIQGTDQLMKHKDTAVILATGGSAMVKAAYSSGTPAIGVGPGNGPAFIERSANIPRAVKHILDSKTFDNGTICASEQSVVVERVNKEAVIAEFRKQGAHFLSDAEAVQLGKFILRPNGSMNPAIVGKSVQHIANLAGLTVPADARVLIAEETKVGAKIPYSREKLAPILAFYTAETWQEACELSMDILYHEGAGHTLIIHSEDKEIIREFALKKPVSRLLVNTPGALGGIGATTNLVPALTLGCGAVGGSSSSDNIGPENLFNIRRIATGVLELEDIRKEENQATPELSVDADALIQSLVEKVLAELK | not soluble |
| MSTTGSAPLNLREWTAPEKLLPNGSPLVPVDARGADWHGIELGELDLRGAKLCRCDLRGTDLSHCQLDGADLRLARYDSQTVVPVGFDLSNSGAVGPGAKLNGVYLNSSDLRGMDLRGSMLLGSYLSGADLSGAILDGVSLAGSDLRSSTMRGAMCRGTRFGTCELDMADLRGANLEGAVLETVESIRGADFSLCTGLGAQIDALLSRSVAELDCWNPLTRSTTRDSLESLRAARSD | not soluble |
| MSLTVQDLHFKNKVNFIGGQYVPSNESDTIDILSPSTGKVIGEIPAGCKADAENALEVAQAAQKAWAKLTARTRQNMLRTFANKIRENKHILAPMLVAEQGKLLSVAEMEVDVTATFIDYGCDNALTIEGDILPSDNQDEKIYIHKVPRGVVVGITAWNFPLALAGRKIGPALITGNTMVLKPTQETPLATTELGRIAKEAGLPDGVLNVINGTGSVVGQTLCESPITKMITMTGSTVAGKQIYKTSAEYMTPVMLELGGKAPMVVMDDADLDKAAEDALWGRFANCGQVCTCVERLYVHASVYDEFMAKFLPLVKGLKVGDPMDADSQMGPKCNQREIDNIDHIVHEAIKQGATVATGGKTATVEGFEGGCWYEPTVLVDVKQDNIVVHEETFGPILPIVKVSSMEQAIEFCNDSIYGLSAYVHTQSFANINQAISDLEVGEVYINRGMGEQHQGFHNGWKQSGFGGEDGKFGLEQYLEKKTVYINEAEGHHHHHH | soluble |
| MGSDKIHHHHHHMSCIIPNIYSQPTDTNLWNILLSSGIPRHYQKGEFVFEKDQPSNGLICLKKGKVKVSSFFSEGSEKIFGILVAPALFGETETLDQGPRMVSATALTHVEIVAISGNKTKELIYTYPDIALSIIQSIGVKLRWTTLQAEDLSTQKIEYRLARLLLDFKHYGIFTSKNNDNCLMITHEELAHFIGTARSKVTTYLNEFAHKGLIRLRRGEIRILDTAGLNKYKYTHKSQA | not soluble |
| MHPALKYMRQDRLPHIFCSGCGNGIVMNCFLKAIEELNIKPEDYIAVSGIGCSSRVPGYLYCDSLHTTHGRPIAFATGIKIARPDKHVVVFTGDGDLAAIGGNHFIHGCRRNIDLTVICINNNIYGMTGGQVSPTTPYGKKATTAPYGSIENTMDLCKMAIAAGATYVARWTTAHPIQLVRSIKKGIQKKGFAFIEVVSQCPTYYGRFNISRKPADMIKFLKENSIHLNKAKDMSEEELNGKIVVGEFLDIEKPEFVEELHKLIEKLKSE | not soluble |
| MDNHNKYSVRCQCGAVEVQLNNNPVVHAFCHCSDCRDLLNIPFHAVTAWNKNDAVIVKGEEELSIYKHPSLEMTRCFCKHCGETVFNTNVMDWRVISQLLISKCNNNEIPENLRSDKHFFYEQRVVDIQDELPKFSRGTDGPLYEDQH | not soluble |
| MVFDTHLHTLFSTDSKMNIEEAIDAGEKKNLGIIITEHIDLNYPVKGEFVFDIDKYFKEYNKYRSNKVLLGVEIGMGEEIKEQNKSINDKYEFDYVLGSIHLLNGLDLYEKTIYKSSPKKEVFEMYFKTMLACLRCHEYIDSLAHIDYISRYAAYHDGEIYYNEYSDYIDEVLKFIVDREIVIEINTRRLNKKEVCENLMPIYKRYSELGGRFVTIGSDSHYKDSIGLNFKNALKMAENCNLKPVFFEKRLMKYA | not soluble |
| MGSDKIHHHHHHMQPSAVTNTTNLTASPSQFYTWQNYRCTYEIHQPTNTTSEGIPLLLIHPIGVGLSRQFWQRFCHEWYNSGQRNSIYNPDLLGCGESDMPHLAYTPSDWAEQLQYFLQTVVRQPVIVVVQGALLPVAIALVQKESNLISRLVLSGPPTWALMTNKPPEWQQKFIWNVLDSPLGIPFYRYARTPKFLRSFSTRQLFASESAVDAEWLNTLVAGAENPASRHAVFSFLAGFWRQDYTNFMASIQQPTLAVVGETASSISQNNKKETPDDRLANYLACFPQSRGIKINGRNVLPYESTAEFVAAIAPFINEVS | not soluble |
| MGSDKIHHHHHHMAADHVHCASCGQPLTGSYYVLINRPERFCPQCIATRPRCSTCGAPLGNHFWKLHDGRQQCDACHAVAIYDPVQAQHLFQQTAGMLAEGMGLRLHVGVAFRLVDAPTMARLRGPTPPGQDTLGLYRRQNHVRVIYLLYGLPTLIFRITAAHEYAHAWQAEHCPLLRNEFLREGHAEWVAYQHLLQLGSHKAAARMLDENHPYHEPLRYLLQLEAQLGIEGVNRYMMRVDIE | not soluble |
| MGSDKIHHHHHHMLSRTASELFWMARYLERAESYARVLDVTWKLSMIPRHSQQSRDLALPLNLSMTHELFQARHARFTMSNLLNFFALDGNNPCSIYSCVEMAWNNAHAVRGSLSAEVWESINATRIELRTLRQQGLGELGSDGFFEWVKERVHLFRGAVIGTLLRNDALSFIGIGTLIERAFATTQLLLIKDQQLTNDPDPVREYYRLDTLLNAVSAREAYNSLYRQPVSRETVMELLILRNDIPRSLRASIADLVGELEKIANDRSYQPLRLAHQLNVDLRFSTRDDLAQADLQTTLNGLLARINALSDSIRQTYLEAL | not soluble |
| GSHMRSEFASGNTYALYVRDTLQPGMRVRMLDDYEEISAGDEGEFRQSNNGVPPVQVFWESTGRTYWVHWHMLEILGFEEDIEDMVEADEYQGAVASRVLGRALP | soluble |
| MNDDLIMRKKPEQIEMEFQDSGESALVKSTLLSSLQNSEWEIAVRKEVKKFLEKARDDVSAKEVFDAVKDMARREIPQEAKKKLYDQVLEFVTTTNKK | not soluble |
| GHMYQHHNWQGALLDYPVSKVVCVGSNYAKHIKEMGSAVPEEPVLFIKPETALCDLRQPLAIPSDFGSVHHEVELAVLIGATLRQATEEHVRKAIAGYGVALDLTLRDVQGKMKKAGQPWEKAKAFDNSCPLSGFIPAAEFTGDPQNTTLSLSVNGEQRQQGTTADMIHKIVPLIAYMSKFFTLKAGDVVLTGTPDGVGPLQSGDELTVTFDGHSLTTRVLGS | soluble |
